Reference: patent publication US12281147

Columns and labels:
[1] = biological target: human interleukin 21 receptor (IL-21R) (human) (UniProt Q9HBE5); assay: AlphaSeq yeast mating, pH 7 media
[2] = biological target: human interleukin 21 receptor (IL-21R) (human) (UniProt Q9HBE5); assay: AlphaSeq yeast mating, unbuffered media
[3] = biological target: human interleukin 21 receptor (IL-21R) (human) (UniProt Q9HBE5); assay: AlphaSeq yeast mating, pH 5 media
[4] = biological target: human interleukin 21 receptor (IL-21R) (human) (UniProt Q9HBE5); assay: AlphaSeq yeast mating, pH 6 media

Substance | Kd [1] [nM] | Kd [2] [nM] | Kd [3] [nM] | Kd [4] [nM]
IL-21_E72S (from UniProt Q9HBE4 32-152) (ligand) | 340 | – | 530 | 140
IL-21_H118R (from UniProt Q9HBE4 32-152) (ligand) | 260 | 11000 | 20000 | 950
IL-21_I95T (from UniProt Q9HBE4 32-152) (ligand) | 190 | 34000 | 9800 | 550
IL-21_R34G (from UniProt Q9HBE4 32-152) (ligand) | – | 9900 | 6400 | 150
IL-21_R34H (from UniProt Q9HBE4 32-152) (ligand) | 200 | 10000 | – | –
IL-21_R34K (from UniProt Q9HBE4 32-152) (ligand) | – | 14000 | 390 | 47
IL-21_R34W (from UniProt Q9HBE4 32-152) (ligand) | 190 | 20000 | – | 96
IL-21_S74N (from UniProt Q9HBE4 32-152) (ligand) | 410 | 32000 | 48000 | –
IL-21_S77K (from UniProt Q9HBE4 32-152) (ligand) | 170 | 14000 | 190 | –
IL-21_S109K (from UniProt Q9HBE4 32-152) (ligand) | – | 40000 | 43 | 26
IL-21_V98H (from UniProt Q9HBE4 32-152) (ligand) | – | 8800 | 170 | 26
IL-21_W73A (from UniProt Q9HBE4 32-152) (ligand) | 170 | 26000 | 3500 | 360
IL-21_W73L (from UniProt Q9HBE4 32-152) (ligand) | – | 33000 | 5200 | 200

Results, then the substance that gave them:

Kd [1] [nM] | Kd [2] [nM] | Kd [3] [nM] | Kd [4] [nM] | Substance
83 | – | – | – | IL-21_D33A (from UniProt Q9HBE4 32-152) (ligand)
45 | 14000 | 120 | 27 | IL-21_D33N (from UniProt Q9HBE4 32-152) (ligand)
27 | – | 82 | – | IL-21_D33S (from UniProt Q9HBE4 32-152) (ligand)
140 | – | 250 | 35 | IL-21_I37Q (from UniProt Q9HBE4 32-152) (ligand)
83 | – | 370 | 37 | IL-21_L61I (from UniProt Q9HBE4 32-152) (ligand)
46 | – | 47 | 25 | IL-21_L120K (from UniProt Q9HBE4 32-152) (ligand)
47 | 8500 | 160 | 24 | IL-21_N51P (from UniProt Q9HBE4 32-152) (ligand)
140 | 21000 | 170 | 43 | IL-21_N88K (from UniProt Q9HBE4 32-152) (ligand)
94 | 14000 | – | 50 | IL-21_Q150R (from UniProt Q9HBE4 32-152) (ligand)
25 | 60000 | – | – | IL-21_S99H (from UniProt Q9HBE4 32-152) (ligand)
140 | 16000 | 1000 | 110 | IL-21_T89L (from UniProt Q9HBE4 32-152) (ligand)
50 | 14000 | 50 | 16 | IL-21_V57R (from UniProt Q9HBE4 32-152) (ligand)
120 | 15000 | – | 88 | IL-21_W73Q (from UniProt Q9HBE4 32-152) (ligand)
89 | 63000 | 55000 | 390 | IL-21_Y52Q (from UniProt Q9HBE4 32-152) (ligand)
